B1: PHTF1 (parent)
chain: RVKLISNKGTETDNDPSCVHPIIK

Variants of: B1
Test: protein stability index of a GFP-peptide fusion (GPS, HEK-293T) (PSI 1-6); higher = more stable
Conditions: c terminus: a fixed tail appended
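Also: lentivirally expressed fusions sorted by FACS into six bins by GFP to DsRed ratio, PSI derived from sequencing read proportions per bin multiplied by bin number.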

Variant	protein stability index
RVKLISNKGTETDNDPSCVHDIIK [P21D]	3.95
RVKLISNKGTETDNDPSCVHFIIK [P21F]	2.73
RVKLISNKGTETDNDPSCVHKIIK [P21K]	3.84
RVKLISNKGTETDNDPSCVHRIIK [P21R]	4
RVKLISNKGTETDNDPSCVHIIIK [P21I]	2.1
RVKLISNKGTETDNDPSCVHEIIK [P21E]	4.03
RVKLISNKGTETDNDPSCVHQIIK [P21Q]	3.82
RVKLISNKGTETDNDPSCVHTIIK [P21T]	3.87
RVKLISNKGTETDNDPSCVHVIIK [P21V]	3.46
RVKLISNKGTETDNDPSCVHCIIK [P21C]	2.75
RVKLISNKGTETDNDPSCVHAIIK [P21A]	3.72
RVKLISNKGTETDNDPSCVHHIIK [P21H]	4.03
RVKLISNKGTETDNDPSCVHSIIK [P21S]	3.89
RVKLISNKGTETDNDPSCVHMIIK [P21M]	3.06
RVKLISNKGTETDNDPSCVHWIIK [P21W]	3.13
RVKLISNKGTETDNDPSCVHNIIK [P21N]	3.61
RVKLISNKGTETDNDPSCVHYIIK [P21Y]	3.4
RVKLISNKGTETDNDPSCVHGIIK [P21G]	4.08
RVKLISNKGTETDNDPSCVHLIIK [P21L]	2.3
RVKLISNKGTETDNDPSCVHPAIK [I22A]	4.42
RVKLISNKGTETDNDPSCVHPEIK [I22E]	4.38
RVKLISNKGTETDNDPSCVHPVIK [I22V]	4.4
RVKLISNKGTETDNDPSCVHPCIK [I22C]	3.84
RVKLISNKGTETDNDPSCVHPPIK [I22P]	4.67

Variant	protein stability index
RVKLISNKGTETDNDPSCVHPMIK [I22M]	3.51
RVKLISNKGTETDNDPSCVHPRIK [I22R]	4.53
RVKLISNKGTETDNDPSCVHPYIK [I22Y]	4.23
RVKLISNKGTETDNDPSCVHPHIK [I22H]	4.78
RVKLISNKGTETDNDPSCVHPQIK [I22Q]	4.22
RVKLISNKGTETDNDPSCVHPSIK [I22S]	4.6
RVKLISNKGTETDNDPSCVHPGIK [I22G]	4.48
RVKLISNKGTETDNDPSCVHPNIK [I22N]	4.5
RVKLISNKGTETDNDPSCVHPTIK [I22T]	4.51
RVKLISNKGTETDNDPSCVHPKIK [I22K]	4.32
RVKLISNKGTETDNDPSCVHPWIK [I22W]	3.68
RVKLISNKGTETDNDPSCVHPLIK [I22L]	4.22
RVKLISNKGTETDNDPSCVHPFIK [I22F]	3.88
RVKLISNKGTETDNDPSCVHPDIK [I22D]	4.63
RVKLISNKGTETDNDPGCVHPIIK [S17G]	4.21
RVKLISNKGTETDNDPFCVHPIIK [S17F]	3.12
RVKLISNKGTETDNDPYCVHPIIK [S17Y]	3.36
RVKLISNKGTETDNDPWCVHPIIK [S17W]	2.96
RVKLISNKGTETDNDPHCVHPIIK [S17H]	4.06
RVKLISNKGTETDNDPPCVHPIIK [S17P]	4.41
RVKLISNKGTETDNDPVCVHPIIK [S17V]	4.16
RVKLISNKGTETDNDPICVHPIIK [S17I]	3.29
RVKLISNKGTETDNDPRCVHPIIK [S17R]	3.99
RVKLISNKGTETDNDPECVHPIIK [S17E]	4.71

Variant	protein stability index
RVKLISNKGTETDNDPCCVHPIIK [S17C]	3.53
RVKLISNKGTETDNDPACVHPIIK [S17A]	4.42
RVKLISNKGTETDNDPQCVHPIIK [S17Q]	4.18
RVKLISNKGTETDNDPDCVHPIIK [S17D]	4.08
RVKLISNKGTETDNDPNCVHPIIK [S17N]	4.01
RVKLISNKGTETDNDPLCVHPIIK [S17L]	3.93
RVKLISNKGTETDNDPKCVHPIIK [S17K]	4.22
RVKLISNKGTETDNDPTCVHPIIK [S17T]	4.27
RVKLISNKGTETDNDPMCVHPIIK [S17M]	3.59
RVKLISNKGTETDNDPSCIHPIIK [V19I]	3.84
RVKLISNKGTETDNDPSCDHPIIK [V19D]	4.74
RVKLISNKGTETDNDPSCHHPIIK [V19H]	3.87
RVKLISNKGTETDNDPSCYHPIIK [V19Y]	3.86
RVKLISNKGTETDNDPSCTHPIIK [V19T]	4.36
RVKLISNKGTETDNDPSCPHPIIK [V19P]	4.64
RVKLISNKGTETDNDPSCQHPIIK [V19Q]	4.21
RVKLISNKGTETDNDPSCNHPIIK [V19N]	4.38
RVKLISNKGTETDNDPSCGHPIIK [V19G]	3.89
RVKLISNKGTETDNDPSCAHPIIK [V19A]	4.34
RVKLISNKGTETDNDPSCRHPIIK [V19R]	4.21
RVKLISNKGTETDNDPSCLHPIIK [V19L]	3.68
RVKLISNKGTETDNDPSCEHPIIK [V19E]	4.32
RVKLISNKGTETDNDPSCKHPIIK [V19K]	4.28
RVKLISNKGTETDNDPSCMHPIIK [V19M]	3.88

Variant	protein stability index
RVKLISNKGTETDNDPSCFHPIIK [V19F]	3.31
RVKLISNKGTETDNDPSCWHPIIK [V19W]	3.19
RVKLISNKGTETDNDPSCSHPIIK [V19S]	4.47
RVKLISNKGTETDNDPSCCHPIIK [V19C]	3.93
RVKLISNKGTETDNDPSCVCPIIK [H20C]	3.94
RVKLISNKGTETDNDPSCVRPIIK [H20R]	4.26
RVKLISNKGTETDNDPSCVEPIIK [H20E]	4.76
RVKLISNKGTETDNDPSCVDPIIK [H20D]	4.46
RVKLISNKGTETDNDPSCVPPIIK [H20P]	4.02
RVKLISNKGTETDNDPSCVSPIIK [H20S]	4.11
RVKLISNKGTETDNDPSCVVPIIK [H20V]	3.86
RVKLISNKGTETDNDPSCVWPIIK [H20W]	3.32
RVKLISNKGTETDNDPSCVKPIIK [H20K]	4.38
RVKLISNKGTETDNDPSCVQPIIK [H20Q]	4.61
RVKLISNKGTETDNDPSCVAPIIK [H20A]	4.3
RVKLISNKGTETDNDPSCVFPIIK [H20F]	3.42
RVKLISNKGTETDNDPSCVNPIIK [H20N]	4.15
RVKLISNKGTETDNDPSCVGPIIK [H20G]	4.43
RVKLISNKGTETDNDPSCVMPIIK [H20M]	4.22
RVKLISNKGTETDNDPSCVTPIIK [H20T]	4.49
RVKLISNKGTETDNDPSCVIPIIK [H20I]	3.6
RVKLISNKGTETDNDPSCVYPIIK [H20Y]	3.91
